Assay results from patent US20100099103A1.

Target: human TNF (hTNF) (human) (UniProt P01375)
Test: method not stated (free scFv protein; titration curves in FIG. 11)

Sequence of UniProt P01375 (P01375 77-233 limits assumed): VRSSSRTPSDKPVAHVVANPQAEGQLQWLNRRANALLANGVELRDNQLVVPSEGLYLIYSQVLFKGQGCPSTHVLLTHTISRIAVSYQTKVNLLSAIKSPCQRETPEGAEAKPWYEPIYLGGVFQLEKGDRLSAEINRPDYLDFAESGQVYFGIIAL

Kd: 0.2 µM
Substance: 2SD4 scFv (D2E7 scFv precursor), free protein
